Results published in article doi:10.1101/2024.08.03.606473.

Columns and labels:
[1] = target: SidF C-trim (residues 1-443) (Aspergillus fumigatus) (UniProt Q4WF55); experiment: SEC
[2] = target: SidF C-trim (residues 1-443) (Aspergillus fumigatus) (UniProt Q4WF55); experiment: SAXS

## SidF C-trim (residues 1-443) (from UniProt Q4WF55 1-443) (domain or fragment)
[1]
  stoichiometry N: 4
[2]
  stoichiometry N: 2
